“Also recorded” adds a separate entry of the source. Read-outs that look alike come from different tables or passages of the source. Values belong to the compound of their own block, whether it stands above or below them. Non-standard residues stand in square brackets, D forms with d. Residues, ends and D or L forms follow the SMILES beside them.
What was measured:
HEK-CCR2 [1] = test: Cytotoxicity on HEK-CCR2; settings: 4 hours of incubation at 37° C., 5% CO2, various concentrations
CCR2 [2] = target: T1, CCR2 (Homo sapiens, UniProt P41597); test: CCL2-Alexa 647 binding assay on HEK-CCR2; settings: competition binding
T1 construct: expressed in transfected cells
Description: Binding was performed with the same cells. 200.000 cells were pre-incubated for 30 minutes at 4° C. in 100 μl buffer (PBS containing 0.5% BSA, 0.2% EDTA and NaN3 0.01%) with recombinant human CCL2 (50 nM, 100 nM and 500 nM), ECL1 (C) inverso (11.3 μM, 28.2 μM and 56.3 μM) or with buffer. After, 50 nM CCL2-alexa 647 (Almac) were add for 30 minutes at 4° C. and washed three times with 1 ml of cold buffer. Cells were incubated with 10 μl anti-human-CCR2 (BD pharmingen) for 30 minutes at 4° C. in the dark and washed three times with 1 ml of cold buffer. Cells and beads were counted on FACSCalibur flow cytometer and data were analysed with FlowJo software.

CCR2 [3] = target: T1, CCR2; test: β-arrestin recruitment assay (PathHunter), CCL2-induced; assay type: cell-based; settings: HEK-CCR2
Description: Recruitment of β-arrestin in live cells was measured by chemoluminescence detection with the PathHunter™ eXpress β-Arrestin assay kit (DiscoveRex, #93-00446E1). Briefly, 100 μL PathHunter eXpress cells were expressing CCR2 were plated on a 96-well tissue culture treated plate for 48 hours at 37° C., 5% CO2. Cells were first incubated with ECL1 (C) inverso or control peptide and before adding 10 μL of the agonist, CCL2 diluted in OCC medium to achieve the EC80 determined beforehand or with OCC medium alone, for respectively 60 and 90 min at 37° C., 5% CO2. The reaction was stopped by adding 55 μL of the Working Detection Reagent Solution (PathHunter detection reagent) for 90 min at Room temperature. Chemoluminescent signal was read on a luminescent plate reader (TriStar LB 941, Berthold Technologies, Thoiry, France). Assays were run in triplicates.

CCR2 [4] = target: T1, CCR2; test: Calcium flux assay, CCL2-induced calcium release on HEK-CCR2; assay type: cell-based
Description: Cytosolic-free calcium assay was measured by fluorescent detection with the HitHunter™ Calcium No WashPLUS (Ca NWPLUS) assay kit (DiscoveRex, #90-0091). Briefly, HEK or CHO expressing the chemokine receptor of interest (5.104) were plated overnight at 37° C., 5% CO2 before pre-loading with a calcium sensitive dye (Ca NWPLUS working reagent) supplemented with probenecid (Sigma-Aldrich, #P8761) to avoid calcium dye leakage from the cells, for 1 h at 37° C. Cells were then treated with control buffer or peptides at various concentrations and appropriate agonist. Signal was measured as function of time on a fluorescent plate reader equipped with fluidic handling (FlexStation 3, Molecular Devices). Maximum change in fluorescence over baseline (peak signal) was used to determine agonist response, as quantified using SoftMax Pro software. All experiments were run in triplicate, and results are representative of at least three independent experiments.

CCR2 [5] = target: T1, CCR2; test: Radioligand binding assay, I125-CCL2 on HEK-CCR2; settings: competition binding
Description: Binding assay was carried out using I125-CCL2 (specific activity 2200 Ci/mmol; Perkin elmer, inc.). 300.000 HEK cells stably expressing CCR2 and native cells were incubated with I125-CCL2 in the presence or absence of recombinant human CCL2 (10 nM or 100 nM) or ECL1 (C) inverso (1-10-30 μM) in 200 μl buffer (PBS containing 0.5% BSA and 0.01% HEPES). After 1 h incubation at 37° C., cells were washed three times with 1 ml of cold washing solution. Gamma emissions were then counted in the cell pellet with gamma counter. Non-specific binding represented less than 15% of total binding and was subtracted from total binding to define specific I125-CCL2 binding.

mouse monocytes = test: Migration assay, mouse monocytes / leukocytes (MBMC); assay type: cell-based; settings: up to 500 μM
Description: (§1) Migration assays were performed in 24-transwell inserts (Corning Costar Avon, France) with 8 μm polycarbonate filter for HEK or CHO cells and 5 μm for MBMC. […] The bottom of each well was filled with 600 μL pre-warmed chemotaxis buffer at indicated chemokine concentration. The plates were then incubated for 4 hours at 37° C. in a 5% CO2 atmosphere. […] Before counting the cells by flow cytometry, mouse leukocytes were immunophenotyped with a mix of fluorescent antibodies (anti-mouse Ly6G-PE, anti-mouse NK1.1-PE, anti-mouse […], anti-mouse 7/4-FITC, BD Biosciences) and HEK expressing chemokine receptors with appropriate fluorescent anti-human chemokine receptor. Data were analysed with FlowJo software and results are expressed as a number of cells migrating in the presence or in the absence of chemoattractant. Experiments were run in triplicate, and results are representative of at least three independent experiments.

CCR2 [6] = target: T1, CCR2; test: Migration assay, HEK-CCR2 induced by CCL2; assay type: cell-based; settings: up to 500 μM
Description: as §1

HEK-CCR2 [7] = system: HEK-CCR2
CX3CR1 = target: T2, CX3CR1 (Homo sapiens, UniProt P49238); test: Migration assay, HEK-CX3CR1 induced by CX3CL1; assay type: cell-based; settings: up to 500 μM
T2 construct: expressed in transfected cells
T2 sequence (P49238 1-355): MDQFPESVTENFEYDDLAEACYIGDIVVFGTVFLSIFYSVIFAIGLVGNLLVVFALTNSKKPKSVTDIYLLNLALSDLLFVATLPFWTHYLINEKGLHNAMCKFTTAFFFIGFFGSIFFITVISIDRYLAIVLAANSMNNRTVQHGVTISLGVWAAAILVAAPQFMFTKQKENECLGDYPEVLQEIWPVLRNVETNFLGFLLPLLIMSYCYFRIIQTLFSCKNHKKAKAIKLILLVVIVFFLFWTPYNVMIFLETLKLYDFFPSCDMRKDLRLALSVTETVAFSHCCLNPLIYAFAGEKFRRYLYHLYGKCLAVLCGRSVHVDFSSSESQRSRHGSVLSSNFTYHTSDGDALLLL
Description: as §1

CCR5 = target: T3, CCR5 (Homo sapiens, UniProt P51681); test: Migration assay, HEK-CCR5 induced by CCL5; assay type: cell-based; settings: up to 500 μM
T3 construct: expressed in transfected cells
Description: as §1

T1 sequence (P41597 whole entry): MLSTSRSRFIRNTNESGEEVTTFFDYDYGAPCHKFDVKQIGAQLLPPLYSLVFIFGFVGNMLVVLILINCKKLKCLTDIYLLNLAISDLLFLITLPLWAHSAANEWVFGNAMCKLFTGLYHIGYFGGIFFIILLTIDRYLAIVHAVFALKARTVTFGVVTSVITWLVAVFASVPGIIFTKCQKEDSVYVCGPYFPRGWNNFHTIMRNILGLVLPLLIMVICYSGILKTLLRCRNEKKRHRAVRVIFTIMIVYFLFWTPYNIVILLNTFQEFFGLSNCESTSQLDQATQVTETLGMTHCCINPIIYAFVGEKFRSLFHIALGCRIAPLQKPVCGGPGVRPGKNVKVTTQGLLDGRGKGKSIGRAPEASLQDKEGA
T3 sequence (P51681 whole entry): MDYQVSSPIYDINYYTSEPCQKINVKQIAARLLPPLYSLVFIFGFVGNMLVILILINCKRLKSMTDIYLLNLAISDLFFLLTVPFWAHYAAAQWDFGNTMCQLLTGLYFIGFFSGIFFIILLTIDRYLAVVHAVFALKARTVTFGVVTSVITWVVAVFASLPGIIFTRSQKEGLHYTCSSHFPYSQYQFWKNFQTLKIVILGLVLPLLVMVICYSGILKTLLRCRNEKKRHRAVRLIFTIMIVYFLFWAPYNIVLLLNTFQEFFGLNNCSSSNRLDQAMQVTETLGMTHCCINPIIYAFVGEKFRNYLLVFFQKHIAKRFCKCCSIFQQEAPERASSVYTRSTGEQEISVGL
Description for MBCM: Mouse bone marrow cells (MBMC) were obtained from C57BL/6 mice.
Cells were immunophenotyped by adding a mix of fluorescent antibodies (anti LY-6G-PE, anti CD11b-PerCP, anti 7/4-FITC, anti F4/80-APC, anti NK-PE) and counted by FACSCalibur flow cytometry with predetermined number of beads (Polybead, carboxylate microsphere Polyscience, Inc) added to the samples. Data were analyzed with FlowJo.

Compound: CC(C)C[C@@H](N)C(=O)NCC(=O)N[C@@H](C(=O)N[C@H](Cc1ccccc1)C(=O)N[C@H](CC(C)C)C(=O)N[C@H](CCCCN)C(=O)N[C@H](CS)C(=O)O)[C@H](C)O [ECL1 (C) inverso, LGTFLKC] (H-[dL]G[dT][dF][dL][dK][dC]-OH; N-terminus and C-terminus assumed)
cytotoxicity on HEK-CCR2 (HEK-CCR2 [1]): No cytotoxicity effect

EC80 of CCL2 for β-arrestin recruitment (CCR2 [3]): 12.5 nM
EC80 of CCL2 for calcium release (CCR2 [4]): 50 nM
displacement of bound [125I]-CCL2 on HEK-CCR2 (CCR2 [5]): could displace dose-dependently
Compound: CCL2: chemokine, natural agonist of CCR2
displacement of the binding of CCL2-Alexa-647 with HEK-CCR2 (CCR2 [2]): could displace dose-dependently; also recorded: displaces dose-dependently

induction of chemotaxis by the peptide itself, HEK-CCR2 (CCR2 [6]): did not induced chemotaxis
induction of chemotaxis by the peptide itself, HEK-CX3CR1 (CX3CR1): did not induced chemotaxis
induction of chemotaxis by the peptide itself, HEK-CCR5 (CCR5): did not induced chemotaxis
Compound: CKLFTGL [ECL1 (C), peptide from extracellular juxtamembranous region of CCR2]
induction of chemotaxis by the peptide itself, mouse leukocytes (mouse monocytes): did not induced chemotaxis
cytotoxicity on HEK-CCR2 (HEK-CCR2 [7]): no significant cell death
cytotoxicity on MBCM (MBCM): no significant cell death
